How the values were obtained:
[1] = tested on: guinea pig red blood cells (RBCs); assay: Parallel plate flow chamber, RBCs on carpet of FimH-expressing E. coli; assay type: cell-based; details: low shear, 0.01 to 0.14 dynes/cm^2
Description: Bacteria-coated dishes were prepared as follows: 35 mm tissue culture dishes were incubated with 20 μg/ml RNAse B in 0.02 M bicarbonate buffer for 1 hr at 37° C. and washed three times in PBS with 0.1% BSA (PBS-BSA). The dishes were then incubated with 200 μl PBS-BSA containing 108 colony-forming units of E. coli for 1 hr at 37° C. and washed three times. […] The dishes were then placed under a Glycotech parallel plate flow chamber with a size B gasket (2.5 cm×0.25 cm×250 μm) and sealed with vacuum. A Harvard model #975 pulse-free syringe pump was used to pump fluid through the chamber. […]
RBC movement was recorded using phase contrast microscopy with a 20× objective, a CCD camera, and Metamorph video imaging software by Universal Imaging. Videos were recorded at 1 frame every 2 s for a total of 3 min at each shear rate. […] The average velocity for each cell was calculated from these positions over the 3 min at each shear. […] We only analyzed cells that were attached and in the field of view at the start of the 3 min time frame. The off-rate of RBCs was calculated from the X, the percent of original RBCs remaining bound at time t, using the formula k=1/t·ln(1/X), and using t=3 min. […]

[2] = tested on: guinea pig red blood cells (RBCs); assay: RBC rosette-formation assay (static agglutination); assay type: cell-based; details: static rosette-formation assay
Description: (§1) Assays of bacterial adhesion to Man1-BSA and bovine RNAseB immobilized in 96-well plates were carried out as described previously (Sokurenko et al., 1995). Briefly, Man1-BSA and bovine RNAseB were dissolved at 20 μg/ml in 0.02 M bicarbonate buffer, and 100 μl aliquots were incubated in microtiter wells for 1 hr at 37° C. The wells were then washed three times with PBS and quenched with 0.1% BSA in PBS. 3H-thymidine-labeled bacteria were added in 0.1% BSA in PBS and incubated for 40 min at 37° C. without shaking to achieve saturation, and the wells were then washed with PBS. The individual wells were subjected to scintillation counting. The density of bacteria used in all assays was 5×10^7 colony forming units per 100 μl. RBC rosette-formation assay was performed by mixing equal amounts of serially diluted bacterial suspensions (starting from OD540 nm=1.0) and a 1% suspension of RBC in U-bottom microtiter plate wells. On-slide agglutination assays were performed by mixing the suspension of RBC and bacteria on a slide surface followed by rocking at ˜3 s^−1.
Two commonly used RBC agglutination assays were performed that utilize different shear conditions. […] If no agglutination occurs, RBCs fall into a pellet in the bottom of the well (FIG. 15A), while agglutination results in a rosette of RBCs crosslinked by bacteria. […]

[3] = tested on: bovine RNAse B (trimannose); assay: Bacterial adhesion to bovine RNAse B-coated microplate (trimannose), static; assay type: binding; details: mutations in FimH-j96 and FimH-f18
Description: as §1

Molecule | Adhesion of RBCs to bacterial carpet under low shear [1] | RBC agglutination under static conditions (in words) [2] | Trimannose binding function of point mutants (in words) [3]
FimH-j96-Q32L:S124A: FimH-j96 with combined Q32L and S124A mutations in the loop regions near the linker chain (protein) FACKTANGTAIPIGGGSANVYVNLAPAVNVGLNLVVDLSTQIFCHNDYPETITDYVTLQRGSAYGGVLSSFSGTVKYNGSSYPFPTTSETPRVVYNSRTDKPWPVALYLTPVSSAGGVAIKAGALIAVLILRQTNNYNSDDFQFVWNIYANNDVVVPTGGCDVSARDVTVTLPDYPGSVPIPLTVYCAKSQNLGYYLSGTTADAGNSIFTNTASFSPAQGVGVQLTRNGTIIPANNTVSLGAVGTSAVSLGLTANYARTGGQVTAGNVQSIIGVTFVYQ | moved much more under low shear stress than those on FimH-j96 |  | 
FimH-f18-V156P: FimH-f18 with the V156P point mutation in the linker chain (protein) FACKTANGTAIPIGGGSANVYVNLAPAVNVGQNLVVDLSTQIFCHNDYPETITDYVTLQRGSAYGGVLSSFSGTVKYNGSSYPFPTTSETPRVVYNSRTDKPWPVALYLTPVSSAGGVAIKAGSLIAVLILRQTNNYNSDDFQFVWNIYANNDVVPPTGGCDVSARDVTVTLPDYPGSVPIPLTVYCAKSQNLGYYLSGTTADAGNSIFTNTASFSPAQGVGVQLTRNGTIIPANNTVSLGAVGTSAVSLGLTANYARTGGQVTAGNVQSIIGVTFVYQ | dramatically stronger adhesion under low shear than did the FimH-f18 parent | significantly better than the corresponding wild-types | 
FimH-j96-V156P: FimH-j96 with the V156P point mutation in the linker chain (protein) FACKTANGTAIPIGGGSANVYVNLAPAVNVGQNLVVDLSTQIFCHNDYPETITDYVTLQRGSAYGGVLSSFSGTVKYNGSSYPFPTTSETPRVVYNSRTDKPWPVALYLTPVSSAGGVAIKAGSLIAVLILRQTNNYNSDDFQFVWNIYANNDVVPPTGGCDVSARDVTVTLPDYPGSVPIPLTVYCAKSQNLGYYLSGTTADAGNSIFTNTASFSPAQGVGVQLTRNGTIIPANNTVSLGAVGTSAVSLGLTANYARTGGQVTAGNVQSIIGVTFVYQ |  | significantly better than the corresponding wild-types | 
V156P: point mutation V156P engineered into the FimH-j96 and FimH-f18 variants (protein) FACKTANGTAIPIGGGSANVYVNLAPAVNVGQNLVVDLSTQIFCHNDYPETITDYVTLQRGSAYGGVLSSFSGTVKYNGSSYPFPTTSETPRVVYNSRTDKPWPVALYLTPVSSAGGVAIKAGSLIAVLILRQTNNYNSDDFQFVWNIYANNDVVPPTGGCDVSARDVTVTLPDYPGSVPIPLTVYCAKSQNLGYYLSGTTADAGNSIFTNTASFSPAQGVGVQLTRNGTIIPANNTVSLGAVGTSAVSLGLTANYARTGGQVTAGNVQSIIGVTFVYQ |  |  | entirely conserved
V154P: point mutation V154P engineered into the FimH-j96 and FimH-f18 variants (protein) FACKTANGTAIPIGGGSANVYVNLAPAVNVGQNLVVDLSTQIFCHNDYPETITDYVTLQRGSAYGGVLSSFSGTVKYNGSSYPFPTTSETPRVVYNSRTDKPWPVALYLTPVSSAGGVAIKAGSLIAVLILRQTNNYNSDDFQFVWNIYANNDPVVPTGGCDVSARDVTVTLPDYPGSVPIPLTVYCAKSQNLGYYLSGTTADAGNSIFTNTASFSPAQGVGVQLTRNGTIIPANNTVSLGAVGTSAVSLGLTANYARTGGQVTAGNVQSIIGVTFVYQ |  |  | entirely conserved
V155P: point mutation V155P engineered into the FimH-j96 and FimH-f18 variants (protein) FACKTANGTAIPIGGGSANVYVNLAPAVNVGQNLVVDLSTQIFCHNDYPETITDYVTLQRGSAYGGVLSSFSGTVKYNGSSYPFPTTSETPRVVYNSRTDKPWPVALYLTPVSSAGGVAIKAGSLIAVLILRQTNNYNSDDFQFVWNIYANNDVPVPTGGCDVSARDVTVTLPDYPGSVPIPLTVYCAKSQNLGYYLSGTTADAGNSIFTNTASFSPAQGVGVQLTRNGTIIPANNTVSLGAVGTSAVSLGLTANYARTGGQVTAGNVQSIIGVTFVYQ |  |  | entirely conserved

Reference: patent publication US20090325259A1, “USE OF ADHESION MOLECULES AS BOND STRESS-ENHANCED NANOSCALE BINDING SWITCHES” (priority 2002, published 2009)
